The source of these data is PMC8219831, “Native mass spectrometry analyses of chaperonin complex TRiC/CCT reveal subunit N-terminal processing and re-association patterns” (Scientific Reports, 2021).

For data set [1], the target named is human TRiC subunit CCT8 (human) (UniProt P50990). The data set is described as follows: native MS; hTRiC in ammonium acetate pH 7.5 disrupted with 25% (v/v) DMSO, analysed within 30 min; dimers assigned by mass within 12 Da.
Data set [2] concerns the molecule itself. Description: intact mass spectrometry of reverse phase fractions (denaturing); RP-HPLC fractions of hTRiC in acetonitrile/TFA elution buffer, 0.1-0.6 μM, nanoelectrospray, QExactive Plus EMR; partially unfolded dimers; dimer masses fitted assuming disulfide formation (-2 Da).

In data set [1], “human TRiC subunit CCT8 (from UniProt P50990 2-548) (natural protein)” showed a percent of all dimer signal of 15%.

B1: human TRiC subunit CCT4 (natural protein, UniProt P50991 2-539, looked up)
chain: PENVAPRSGATAGAAGGRGKGAYQDRDKPAQIRFSNISAAKAVADAIRTSLGPKGMDKMIQDGKGDVTITNDGATILKQMQVLHPAARMLVELSKAQDIEAGDGTTSVVIIAGSLLDSCTKLLQKGIHPTIISESFQKALEKGIEILTDMSRPVELSDRETLLNSATTSLNSKVVSQYSSLLSPMSVNAVMKVIDPATATSVDLRDIKIVKKLGGTIDDCELVEGLVLTQKVSNSGITRVEKAKIGLIQFCLSAPKTDMDNQIVVSDYAQMDRVLREERAYILNLVKQIKKTGCNVLLIQKSILRDALSDLALHFLNKMKIMVIKDIEREDIEFICKTIGTKPVAHIDQFTADMLGSAELAEEVNLNGSGKLLKITGCASPGKTVTIVVRGSNKLVIEEAERSIHDALCVIRCLVKKRALIAGGGAPEIELALRLTEYSRTLSGMESYCVRAFADAMEVIPSTLAENAGLNPISTVTELRNRHAQGEKTAGINVRKGGISNILEELVVQPLLVSVSALTLATETVRSILKIDDVVNTR
notes: CCT4 subunit of human TRiC; initiator methionine removed, proline exposed, not acetylated (from the measured mass); also called CCTδ; source: Hi5 (Trichoplusia ni) cells, baculovirus pYC35 co-expressing CCT1-8; purified as hTRiC (calmodulin resin, monoQ, SEC); released by RP-HPLC or by 25% DMSO or methanol
A word on the stoichiometry N: it is a count of units in the complex or per binding partner. For B1, the “stoichiometry N” value in data set [2] was 2.

B2: human TRiC subunit CCT2 (natural protein, UniProt P78371 2-535, looked up)
chain: ASLSLAPVNIFKAGADEERAETARLTSFIGAIAIGDLVKSTLGPKGMDKILLSSGRDASLMVTNDGATILKNIGVDNPAAKVLVDMSRVQDDEVGDGTTSVTVLAAELLREAESLIAKKIHPQTIIAGWREATKAAREALLSSAVDHGSDEVKFRQDLMNIAGTTLSSKLLTHHKDHFTKLAVEAVLRLKGSGNLEAIHIIKKLGGSLADSYLDEGFLLDKKIGVNQPKRIENAKILIANTGMDTDKIKIFGSRVRVDSTAKVAEIEHAEKEKMKEKVERILKHGINCFINRQLIYNYPEQLFGAAGVMAIEHADFAGVERLALVTGGEIASTFDHPELVKLGSCKLIEEVMIGEDKLIHFSGVALGEACTIVLRGATQQILDEAERSLHDALCVLAQTVKDSRTVYGGGCSEMLMAHAVTQLANRTPGKEAVAMESYAKALRMLPTIIADNAGYDSADLVAQLRAAHSEGNTTAGLDMREGTIGDMAILGITESFQVKRQVLLSAAEAAEVILRVDNIIKAAPRKRVPDHHPC
modifications: N-terminal acetylation
notes: CCT2 subunit of human TRiC; initiator methionine removed (from the measured mass); also called CCTβ; source: Hi5 (Trichoplusia ni) cells, baculovirus pYC35 co-expressing CCT1-8; purified as hTRiC (calmodulin resin, monoQ, SEC); released by RP-HPLC or by 25% DMSO or methanol
As for B2, in data set [2], the “stoichiometry N” value is 2.
